This note sets out measurements from paper PMC5085138, “Novel CD7-specific nanobody-based immunotoxins potently enhanced apoptosis of CD7-positive malignant cells” (Oncotarget, 2016).

First the molecules themselves.
B2: CD7 on CD7-positive T-cell lines Jurkat and CEM (receptor)
chain: AQEVQQSPHCTTVPVGASVNITCSTSGGLRGIYLRQLGPQPQDIIYYEDGVVPTTDRRFRGRIDFSGSQDNLTITMHRLQLSDTGTYTCQAITEVNVYGSGTLVLVTEEQSQGWHRCSDAPPRASALPAPPTGSALPDPQTASALPDPPAASALPAALAVISFLLGLGLGVACVLARTQIKKLCSWRDKNSAACVVYEDMSHSRCNTLSSPNQYQ
notes: CD7, cell surface glycoprotein of the immunoglobulin superfamily, endogenous on the human T-ALL cell lines Jurkat and CEM; Also used as the target in the functional rows on patient-derived primary AML and T-ALL cells; source: endogenous, on Jurkat and CEM cells

What all share (conditions): one partner purified
Assay [1] concerns the target B2. Put plainly: flow cytometry on cells; nanobody or immunotoxin at different concentrations incubated with Jurkat cells on ice; detected with APC anti-HA or Alexa Fluor 488 anti-His antibody; saturation curves, Scatchard plots, nonlinear regression (Prism). (Flow cytometry measures light scatter and fluorescence of single cells or particles in a stream.)
For assay [2], the target named is T1, PG001, monovalent CD7 nanobody-based immunotoxin (VHH6-PE38-KDEL) (Pseudomonas (species )).
T1 construct: also called pET28a-VHH6-PE38-KDEL; not shown: His6, N-terminal, kept
Put plainly: flow cytometry on cells.

Assay [3] deals with T2, PG002, bivalent CD7 nanobody-based immunotoxin (dVHH6-PE38-KDEL) (Pseudomonas (species )).
T2 construct: also called pET28a-dVHH6-PE38-KDEL; not shown: His6, N-terminal, kept
Kind of assay: flow cytometry on cells.

B1: VHH6, CD7-specific nanobody (VHH)
VHH: DVQLQESGGGLVQAGGSLRLSCAVSGYPYSSYCMGWFRQAPGKEREGVAAIDSDGRTRYADSVKGRFTISQDNAKNTLYLQMNRMKPEDTAMYYCAARFGPMGCVDLSTLSFGHWGQGTQVTVSI
notes: Selected from a phage library of animals immunized with Jurkat cells (llama in the results, Camelus dromedarius in the methods); Monomer by SEC; also called parental nanobody; source: E. coli BL21 (DE3), pET28a, purified (Ni-NTA)
In turn, B1 yielded a Kd in assay [1] of 0.0154 µM.
Take B2: the Kd in assay [2] amounted to 0.0167 µM; in assay [3] it was 0.00361 µM.

B3: VHH10, CD7-specific nanobody (VHH)
VHH: DVQLQESGGGSVQAGGSLRLSCAASGYTHSSYCMAWFRQAPGREREGVASIDSDGTTSYADSVKGRFTISQDNAKNTLYLQMNSLKPEDTAMYYCAARFGPMGCVDLSTLSFGHWGQGTQVTVSI
notes: source: E. coli BL21 (DE3), pET28a, purified (Ni-NTA)
B3 displayed a Kd in assay [1] of 0.0296 µM.
